Test results as given in patent US20110301095A1 (SANFORD BURNHAM MEDICAL RESEARCH INSTITUTE CALIFORNIA, published 2011).
Values belong to the molecule of their own block, whether it stands above or below them.

Columns and labels:
[1] = target: Flag-HIF-1α (mouse HIF-1α in pCVM-Flag vector, expressed in transfected cells) (mouse) (UniProt Q61221); assay: cell-based or functional assay
[2] = target: T1, Flag-HIF-1α (mouse HIF-1α in pCVM-Flag vector, expressed in transfected cells) (mouse, UniProt Q61221-2 1-822, limits assumed); assay: co-expression in 293T cells, immunoprecipitation of Flag-HIF-1α with M2 beads, immunoblot
T1 construct: not shown: Flag tag
T1 sequence (Q61221 other isoform, or with tags, fused parts or gaps limits assumed): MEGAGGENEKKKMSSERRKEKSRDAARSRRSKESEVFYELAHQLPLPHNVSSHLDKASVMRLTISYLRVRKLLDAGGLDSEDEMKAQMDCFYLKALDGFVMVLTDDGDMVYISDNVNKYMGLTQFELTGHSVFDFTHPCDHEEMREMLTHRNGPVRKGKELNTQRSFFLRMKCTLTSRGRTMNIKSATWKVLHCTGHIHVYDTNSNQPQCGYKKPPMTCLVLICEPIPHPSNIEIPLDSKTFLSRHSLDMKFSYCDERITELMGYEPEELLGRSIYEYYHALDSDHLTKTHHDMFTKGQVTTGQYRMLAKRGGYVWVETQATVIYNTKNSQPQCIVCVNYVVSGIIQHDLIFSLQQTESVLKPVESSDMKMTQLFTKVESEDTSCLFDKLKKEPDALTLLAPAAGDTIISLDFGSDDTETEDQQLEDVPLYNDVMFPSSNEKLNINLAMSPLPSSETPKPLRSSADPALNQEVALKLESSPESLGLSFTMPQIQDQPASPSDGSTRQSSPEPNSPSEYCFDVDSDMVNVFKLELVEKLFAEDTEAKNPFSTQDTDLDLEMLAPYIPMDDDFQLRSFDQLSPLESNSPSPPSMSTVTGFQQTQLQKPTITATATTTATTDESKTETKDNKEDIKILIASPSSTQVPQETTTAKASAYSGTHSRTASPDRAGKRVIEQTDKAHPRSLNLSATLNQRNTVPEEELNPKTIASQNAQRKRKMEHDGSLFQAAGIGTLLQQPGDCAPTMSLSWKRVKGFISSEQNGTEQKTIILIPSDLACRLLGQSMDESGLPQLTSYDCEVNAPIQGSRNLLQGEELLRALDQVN
Protocol: Immunoprecipitation and Western blotting. For immunoprecipitation, cells were harvested in lysis buffer containing 50 mM Tris-HCl pH7.5, 150 mM NaCl, 0.5% NP40, 1 mM EDTA, 1 mM sodium orthovanadate, 1mM PMSF, 10 μg/ml aprotinin, 10 μg/ml leupeptine and 10 μg/ml pepstatin A. To immunoprecipitate Flag-tagged proteins, lysates were incubated with M2 beads (Sigma) overnight, the beads were washed 3 times, and precipitated proteins were eluted with 1 mg/ml of flag peptide. To immunoprecipitate endogenous proteins, cells lysates were incubated with 3 μg of primary antibodies overnight, and followed by incubation with Protein G beads for 1 h. After washing 3 times, the precipitated proteins were eluted with SDS loading buffer. To extract whole cell lysate, cells were harvested using RIPA buffer (50 mM Tris-HCl (pH7.5), 150 mM NaCl, 1% Triton X-100, 0.1% SDS, 0.1% Na-deoxycholate, 1 mM EDTA, 1 mM sodium orthovanadate, 1 mM PMSF, 10 μg/ml aprotinin, and 10 μg/ml leupeptine). Cell lysates were subjected to SDS-PAGE and proteins transferred onto a nitrocellulose membrane (Osmonics Inc.). The membrane was probed with primary antibodies followed by a secondary antibody conjugated with fluorescent dye and detected by the Odyssey detecting system ([…]).

Sequence of Flag-HIF-1α (mouse HIF-1α in pCVM-Flag vector, expressed in transfected cells) (mouse) (Q61221 other isoform, or with tags, fused parts or gaps limits assumed): as above

- HRE-Luc luciferase activity in TRAMP-C cells [1]: 6 fold
Molecule: exogenous FoxA2 expressed in TRAMP-C cells (luciferase assay of FIG. 3A)

- binding result [2]: no binding
B1: HA-FoxA1 (HA-tagged rat FoxA1 in pcDNA3) (other, UniProt P23512 1-466, looked up)
chain: MLGTVKMEGHESNDWNSYYADTQEAYSSVPVSNMNSGLGSMNSMNTYMTMNTMTTSGNMTPASFNMSYANPGLGAGLSPGAVAGMPGGSAGAMNSMTAAGVTAMGAALSPGGMGSMGAQPAASMNGLGPYAAAMNPCMSPMAYAPSNLGRSRAGGGGDAKTFKRSYPHAKPPYSYISLITMAIQQAPSKMLTLSEIYQWIMDLFPYYRQNQQRWQNSIRHSLSFNACFVKVARSPDKPGKGSYWTLHPDSGNMFENGCYLRRQKRFKCEKQPGAGGGSGGGGSKGVPENRKDPSGPVNPSAESPIHRGVHGKASQLEGAPAPGPAASPQTLDHSGATATGGGSELKSPASSSAPPISSGPGGWICTPLSPTWLAPHESQLHLKGAPHYSFNHPFSINNLMSSSEQQHKLDFKAYEQALQYSPYGATLPASLPLGGASVATRSPIEPSALEPAYYQGVYSRPVLNTS
notes: not shown: HA tag
